In patent publication US20260242735A1 (UNIVERSIT T BASEL, published 2026):
Each block holds one binder with its values, some of them ahead of it.

Columns and labels:
human CD33 P48Y = human CD33 P48Y (human, UniProt P20138 18-364); test: flow cytometry, transfected cells
human CD33 P48N = human CD33 P48N (human, UniProt P20138 18-364); test: flow cytometry, transfected cells
human CD33 P48G = human CD33 P48G (human, UniProt P20138 18-364); test: flow cytometry, transfected cells
human CD33 Y49P = human CD33 Y49P (human, UniProt P20138 18-364); test: flow cytometry, transfected cells
human CD33 Y49C = human CD33 Y49C (human, UniProt P20138 18-364); test: flow cytometry, transfected cells
human CD33 Y50I = human CD33 Y50I (human, UniProt P20138 18-364); test: flow cytometry, transfected cells
human CD33 Y50N = human CD33 Y50N (human, UniProt P20138 18-364); test: flow cytometry, transfected cells
human CD33 Y50H = human CD33 Y50H (human, UniProt P20138 18-364); test: flow cytometry, transfected cells
human CD33 Y50D = human CD33 Y50D (human, UniProt P20138 18-364); test: flow cytometry, transfected cells
human CD33 Y50G = human CD33 Y50G (human, UniProt P20138 18-364); test: flow cytometry, transfected cells
human CD33 Y50L = human CD33 Y50L (human, UniProt P20138 18-364); test: flow cytometry, transfected cells
human CD33 Q204A = human CD33 Q204A (human, UniProt P20138 18-364); test: alanine scan, flow cytometry;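 also: HEK293-T cells transiently expressing single-residue alanine mutants of CD33 (alanine swapped to serine), antibody binding read by fluorescence in duplicate, background-subtracted, expressed relative to wild-type CD33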
Method: (§1) An alanine scan on human CD33 was performed to the determine the residues on CD33 that are involved in binding to the antibodies investigated. […] Briefly, a mutation library of CD33 was created by high-throughput, site-directed mutagenesis. Each residue was individually mutated to alanine, with alanine codons mutated to serine. The mutant library was arrayed in 384-well microplates and transiently transfected into HEK293-T. Following transfection, cells were incubated with the indicated antibodies (IgG or Fab) at concentrations pre-determined using an independent immunofluorescence titration curve on wild type CD33. […] Binding of each antibody to each mutant clone was determined in duplicates. For each point, background fluorescence was subtracted from the raw data, which were then normalized to antibody reactivity with wild type CD33.
(§2) Critical residues for antibody binding (outlined in dark grey) were residues whose mutations led to a binding of the test Abs of less than 20%. Additional secondary residues (outlined in light grey) were identified that led to a binding of the test Abs of between 20 and 40% as compared to the wild type CD33.

human CD33 G207A = human CD33 G207A (human, UniProt P20138 18-364); test: alanine scan, flow cytometry;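 also: HEK293-T cells transiently expressing single-residue alanine mutants of CD33 (alanine swapped to serine), antibody binding read by fluorescence in duplicate, background-subtracted, expressed relative to wild-type CD33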
Method: as §1, §2

human CD33 N209A = human CD33 N209A (human, UniProt P20138 18-364); test: alanine scan, flow cytometry;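 also: HEK293-T cells transiently expressing single-residue alanine mutants of CD33 (alanine swapped to serine), antibody binding read by fluorescence in duplicate, background-subtracted, expressed relative to wild-type CD33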
Method: as §1, §2

human CD33 T211A = human CD33 T211A (human, UniProt P20138 18-364); test: alanine scan, flow cytometry;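 also: HEK293-T cells transiently expressing single-residue alanine mutants of CD33 (alanine swapped to serine), antibody binding read by fluorescence in duplicate, background-subtracted, expressed relative to wild-type CD33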
Method: as §1, §2

human CD33 T222A = human CD33 T222A (human, UniProt P20138 18-364); test: alanine scan, flow cytometry
Method: as §1, §2

human CD33 E224A = human CD33 E224A (human, UniProt P20138 18-364); test: alanine scan, flow cytometry
Method: as §1, §2

human CD33 Y233A = human CD33 Y233A (human, UniProt P20138 18-364); test: alanine scan, flow cytometry
Method: as §1, §2

human CD33 Q236A = human CD33 Q236A (human, UniProt P20138 18-364); test: alanine scan, flow cytometry
Method: as §1, §2

human CD33 N237A = human CD33 N237A (human, UniProt P20138 18-364); test: alanine scan, flow cytometry
Method: as §1, §2

human CD33 P238A = human CD33 P238A (human, UniProt P20138 18-364); test: alanine scan, flow cytometry
Method: as §1, §2

human CD33 G247A = human CD33 G247A (human, UniProt P20138 18-364); test: alanine scan, flow cytometry
Method: as §1, §2

human CD33 S248A = human CD33 S248A (human, UniProt P20138 18-364); test: alanine scan, flow cytometry
Method: as §1, §2

human CD33 K250A = human CD33 K250A (human, UniProt P20138 18-364); test: alanine scan, flow cytometry
Method: as §1, §2

human CD33 R254A = human CD33 R254A (human, UniProt P20138 18-364); test: alanine scan, flow cytometry
Method: as §1, §2

human CD33 V257A = human CD33 V257A (human, UniProt P20138 18-364); test: alanine scan, flow cytometry
Method: as §1, §2

human CD33 A261S = human CD33 A261S (human, UniProt P20138 18-364); test: alanine scan, flow cytometry
Method: as §1, §2

human CD33 G266A = human CD33 G266A (human, UniProt P20138 18-364); test: alanine scan, flow cytometry
Method: as §1, §2

human CD33 L270A = human CD33 L270A (human, UniProt P20138 18-364); test: alanine scan, flow cytometry
Method: as §1, §2

human CD33 W22G = human CD33 W22G (human, UniProt P20138 18-364); test: flow cytometry, transfected cells
human CD33 W22S = human CD33 W22S (human, UniProt P20138 18-364); test: flow cytometry, transfected cells
human CD33 W22L = human CD33 W22L (human, UniProt P20138 18-364); test: flow cytometry, transfected cells
human CD33 P46R = human CD33 P46R (human, UniProt P20138 18-364); test: flow cytometry, transfected cells
human CD33 P46Y = human CD33 P46Y (human, UniProt P20138 18-364); test: flow cytometry, transfected cells
human CD33 P46H = human CD33 P46H (human, UniProt P20138 18-364); test: flow cytometry, transfected cells
human CD33 P46D = human CD33 P46D (human, UniProt P20138 18-364); test: flow cytometry, transfected cells
human CD33 N20P = human CD33 N20P (human, UniProt P20138 18-364); test: flow cytometry, transfected cells
human CD33 N20W = human CD33 N20W (human, UniProt P20138 18-364); test: flow cytometry, transfected cells
human CD33 N20Q = human CD33 N20Q (human, UniProt P20138 18-364); test: flow cytometry, transfected cells
human CD33 N20V = human CD33 N20V (human, UniProt P20138 18-364); test: flow cytometry, transfected cells
human CD33 F21S = human CD33 F21S (human, UniProt P20138 18-364); test: flow cytometry, transfected cells

Sequence of human CD33 K250A (P20138 18-364 K250A limits assumed): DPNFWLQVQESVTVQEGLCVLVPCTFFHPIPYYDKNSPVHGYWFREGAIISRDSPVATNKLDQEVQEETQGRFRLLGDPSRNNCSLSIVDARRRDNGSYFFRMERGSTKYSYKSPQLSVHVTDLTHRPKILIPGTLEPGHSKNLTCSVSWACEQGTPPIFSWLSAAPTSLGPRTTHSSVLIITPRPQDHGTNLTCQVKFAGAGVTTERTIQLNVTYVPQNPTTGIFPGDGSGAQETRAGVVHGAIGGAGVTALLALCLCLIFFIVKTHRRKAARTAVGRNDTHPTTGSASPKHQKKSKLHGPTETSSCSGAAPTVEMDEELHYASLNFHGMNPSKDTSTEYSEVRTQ
Sequence of human CD33 Q236A (P20138 18-364 Q236A limits assumed): as the sequence (P20138 18-364 K250A limits assumed) above, with Q219A, A233K counted along it
Sequence of human CD33 T222A (P20138 18-364 T222A limits assumed): as the sequence (P20138 18-364 K250A limits assumed) above, with T205A, A233K counted along it
Sequence of human CD33 E224A (P20138 18-364 E224A limits assumed): as the sequence (P20138 18-364 K250A limits assumed) above, with E207A, A233K counted along it
Sequence of human CD33 S248A (P20138 18-364 S248A limits assumed): as the sequence (P20138 18-364 K250A limits assumed) above, with S231A, A233K counted along it
Sequence of human CD33 Y233A (P20138 18-364 Y233A limits assumed): as the sequence (P20138 18-364 K250A limits assumed) above, with Y216A, A233K counted along it
Sequence of human CD33 Y49P (P20138 18-364 Y49P limits assumed): as the sequence (P20138 18-364 K250A limits assumed) above, with Y32P, A233K counted along it
Sequence of human CD33 P48N (P20138 18-364 P48N limits assumed): as the sequence (P20138 18-364 K250A limits assumed) above, with P31N, A233K counted along it
Sequence of human CD33 P238A (P20138 18-364 P238A limits assumed): as the sequence (P20138 18-364 K250A limits assumed) above, with P221A, A233K counted along it
Sequence of human CD33 Y50L (P20138 18-364 Y50L limits assumed): as the sequence (P20138 18-364 K250A limits assumed) above, with Y33L, A233K counted along it
Sequence of human CD33 P48G (P20138 18-364 P48G limits assumed): as the sequence (P20138 18-364 K250A limits assumed) above, with P31G, A233K counted along it
Sequence of human CD33 N209A (P20138 18-364 N209A limits assumed): as the sequence (P20138 18-364 K250A limits assumed) above, with N192A, A233K counted along it
Sequence of human CD33 Y50N (P20138 18-364 Y50N limits assumed): as the sequence (P20138 18-364 K250A limits assumed) above, with Y33N, A233K counted along it
Sequence of human CD33 T211A (P20138 18-364 T211A limits assumed): as the sequence (P20138 18-364 K250A limits assumed) above, with T194A, A233K counted along it

B1: Refmab #4 (antibody, human IgG1, V domains shown)
VH: QVQLVQSGAEVKKPGESVKVSCKASGYTFTNYGMNWVKQAPGQGLEWMGWINTYTGEPTYADKFQGRVTMTTDTSTSTAYMEIRNLGGDDTAVYYCARWSWSDGYYVYFDYWGQGTSVTVSS
VL: DIVMTQSPDSLTVSLGERTTINCKSSQSVLDSSTNKNSLAWYQQKPGQPPKLLLSWASTRESGIPDRFSGSGSGTDFTLTIDSPQPEDSATYYCQQSAHFPITFGQGTRLEIK
binding result (human CD33 P48Y): no binding (tested: below 20%)
binding result (human CD33 P48N): no binding (tested: below 20%)
binding result (human CD33 P48G): no binding (tested: below 20%)
binding result (human CD33 Y49P): no binding (tested: below 20%)
binding result (human CD33 Y49C): no binding (tested: below 20%)
binding result (human CD33 Y50I): no binding (tested: below 20%)
binding result (human CD33 Y50N): no binding (tested: below 20%)
binding result (human CD33 Y50H): no binding (tested: below 20%)
binding result (human CD33 Y50D): no binding (tested: below 20%)
binding result (human CD33 Y50G): no binding (tested: below 20%)
binding result (human CD33 Y50L): no binding (tested: below 20%)

B2: Refmab #6 (antibody, V domains shown)
VH: QVQLQQPGAEVVKPGASVKMSCKASGYTFTSYYIHWIKQTPGQGLEWVGVIYPGNDDISYNQKFQGKATLTADKSSTTAYMQLSSLTSEDSAVYYCAREVRLRYFDVWGQGTTVTVSS
VL: EIVLTQSPGSLAVSPGERVTMSCKSSQSVFFSSSQKNYLAWYQQIPGQSPRLLIYWASTRESGVPDRFTGSGSGTDFTLTISSVQPEDLAIYYCHQYLSSRTFGQGTKLEIK
notes: Full-length format is human IgG1 Fc silent (PG-LALA); also made as Fab; The alanine scan used IgG or Fab
Mean % WT Binding (human CD33 Q204A): 108 % WT binding
Mean % WT Binding (human CD33 G207A): 98.6 % WT binding
Mean % WT Binding (human CD33 N209A): 101 % WT binding
Mean % WT Binding (human CD33 T211A): 92.2 % WT binding
Mean % WT Binding (human CD33 T222A): 92.2 % WT binding
Mean % WT Binding (human CD33 E224A): 106 % WT binding
Mean % WT Binding (human CD33 Y233A): 103 % WT binding
Mean % WT Binding (human CD33 Q236A): 103 % WT binding
Mean % WT Binding (human CD33 N237A): 101 % WT binding
Mean % WT Binding (human CD33 P238A): 114 % WT binding
Mean % WT Binding (human CD33 G247A): 105 % WT binding
Mean % WT Binding (human CD33 S248A): 94.4 % WT binding
Mean % WT Binding (human CD33 K250A): 98 % WT binding
Mean % WT Binding (human CD33 R254A): 95.7 % WT binding
Mean % WT Binding (human CD33 V257A): 98.1 % WT binding
Mean % WT Binding (human CD33 A261S): 56.7 % WT binding
Mean % WT Binding (human CD33 G266A): 82.6 % WT binding
Mean % WT Binding (human CD33 L270A): 105 % WT binding

B5: Refmab #5 (antibody, V domains shown)
VH: QVQLVQSGAEVKKPGASVKVSCKASGYTFTNYDINWVRQAPGQGLEWIGWIYPGDGSTKYNEKFKAKATLTADTSTSTAYMELRSLRSDDTAVYYCASGYEDAMDYWGQGTTVTVSS
VL: DIQMTQSPSSLSASVGDRVTINCKASQDINSYLSWFQQKPGKAPKTLIYRANRLVDGVPSRFSGSGSGQDYTLTISSLQPEDFATYYCLQYDEFPLTFGGGTKVEIK
notes: as for B2
Mean % WT Binding (human CD33 Q204A): 103 % WT binding
Mean % WT Binding (human CD33 G207A): 109 % WT binding
Mean % WT Binding (human CD33 N209A): 88.1 % WT binding
Mean % WT Binding (human CD33 T211A): 80.4 % WT binding
Mean % WT Binding (human CD33 T222A): 111 % WT binding
Mean % WT Binding (human CD33 E224A): 97.1 % WT binding
Mean % WT Binding (human CD33 Y233A): 89.5 % WT binding
Mean % WT Binding (human CD33 Q236A): 100 % WT binding
Mean % WT Binding (human CD33 N237A): 91.8 % WT binding
Mean % WT Binding (human CD33 P238A): 157 % WT binding
Mean % WT Binding (human CD33 G247A): 85.6 % WT binding
Mean % WT Binding (human CD33 S248A): 105 % WT binding
Mean % WT Binding (human CD33 K250A): 85.7 % WT binding
Mean % WT Binding (human CD33 R254A): 94.7 % WT binding
Mean % WT Binding (human CD33 V257A): 134 % WT binding
Mean % WT Binding (human CD33 A261S): 79.8 % WT binding
Mean % WT Binding (human CD33 G266A): 111 % WT binding
Mean % WT Binding (human CD33 L270A): 91 % WT binding

More lines, now with the values ahead:

binding result (human CD33 W22G): no binding (tested: below 20%)
binding result (human CD33 W22S): no binding (tested: below 20%)
binding result (human CD33 W22L): no binding (tested: below 20%)
B3: Refmab #6 (antibody, human IgG1, V domains shown)
VH: B2 VH
VL: B2 VL

binding result (human CD33 P46R): no binding (tested: below 20%)
binding result (human CD33 P46Y): no binding (tested: below 20%)
binding result (human CD33 P46H): no binding (tested: below 20%)
binding result (human CD33 P46D): no binding (tested: below 20%)
binding result (human CD33 N20P): no binding (tested: below 20%)
binding result (human CD33 N20W): no binding (tested: below 20%)
binding result (human CD33 N20Q): no binding (tested: below 20%)
binding result (human CD33 N20V): no binding (tested: below 20%)
binding result (human CD33 F21S): no binding (tested: below 20%)
B4: Refmab #1 (antibody, human IgG1, V domains shown)
VH: EVQLVQSGAEVKKPGSSVKVSCKASGYTITDSNIHWVRQAPGQSLEWIGYIYPYNGGTDYNQKFKNRATLTVDNPTNTAYMELSSLRSEDTAFYYCVNGNPWLAYWGQGTLVTVSS
VL: DIQLTQSPSTLSASVGDRVTITCRASESLDNYGIRFLTWFQQKPGKAPKLLMYAASNQGSGVPSRFSGSGSGTEFTLTISSLQPDDFATYYCQQTKEVPWSFGQGTKVEVK
notes: also called hP67.6; Absolute Antibody Cat. No. Ab00283-10.0

binding result (human CD33 P48Y): no binding (tested: below 20%)
binding result (human CD33 P48N): no binding (tested: below 20%)
binding result (human CD33 P48G): no binding (tested: below 20%)
binding result (human CD33 Y49P): no binding (tested: below 20%)
binding result (human CD33 Y49C): no binding (tested: below 20%)
binding result (human CD33 Y50I): no binding (tested: below 20%)
binding result (human CD33 Y50N): no binding (tested: below 20%)
binding result (human CD33 Y50H): no binding (tested: below 20%)
binding result (human CD33 Y50D): no binding (tested: below 20%)
binding result (human CD33 Y50G): no binding (tested: below 20%)
binding result (human CD33 Y50L): no binding (tested: below 20%)
B6: Refmab #5 (antibody, human IgG1, V domains shown)
VH: B5 VH
VL: B5 VL
